# Experimental data published in patent publication US20250304717A1, “CAMPTOTHECIN DERIVATIVE AND LIGAND-DRUG CONJUGATE” (HAINAN SIMCERE ZAIMING PHARMACEUTICAL CO., LTD., priority 2022, published 2025).
# T1: CDH6 on OVCAR3 cells (human, UniProt P55285 54-790)
# T1 construct: whole, on cells; also called CDH6 positive cells OVCAR3; CDH6 high-expression cell strain
# T1 sequence (looked up): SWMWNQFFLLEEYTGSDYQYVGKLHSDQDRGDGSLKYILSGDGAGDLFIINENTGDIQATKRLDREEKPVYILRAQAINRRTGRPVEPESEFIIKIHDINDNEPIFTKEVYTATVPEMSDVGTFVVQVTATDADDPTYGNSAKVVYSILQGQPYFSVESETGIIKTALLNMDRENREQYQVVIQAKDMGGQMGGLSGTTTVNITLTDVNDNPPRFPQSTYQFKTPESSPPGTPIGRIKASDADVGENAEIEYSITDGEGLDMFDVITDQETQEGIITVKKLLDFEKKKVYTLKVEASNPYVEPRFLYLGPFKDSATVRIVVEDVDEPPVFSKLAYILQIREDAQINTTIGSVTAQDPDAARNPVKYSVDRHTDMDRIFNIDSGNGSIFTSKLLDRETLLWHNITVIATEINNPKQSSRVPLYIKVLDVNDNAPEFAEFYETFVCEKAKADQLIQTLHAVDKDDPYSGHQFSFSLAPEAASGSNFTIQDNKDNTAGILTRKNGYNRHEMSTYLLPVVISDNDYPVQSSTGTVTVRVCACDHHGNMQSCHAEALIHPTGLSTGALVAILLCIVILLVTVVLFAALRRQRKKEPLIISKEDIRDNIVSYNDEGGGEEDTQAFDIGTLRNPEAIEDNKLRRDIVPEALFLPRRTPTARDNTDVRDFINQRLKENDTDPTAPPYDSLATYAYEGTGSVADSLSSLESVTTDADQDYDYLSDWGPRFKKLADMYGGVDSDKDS
# How the values were obtained:
# CDH6 on OVCAR3 cells = target: T1, CDH6 on OVCAR3 cells; test: flow cytometry (FACS) on OVCAR3 cells, Alexa Fluor 647 anti-human Fc secondary antibody, MFI, four-parameter fit
# Experimental: OVCAR3 cells were collected, counted, and plated in a 96-well plate (Corning, 3795) at 2×10⁵ cells/well. The serially diluted sample to be detected was added and incubated at 4° C. for 1 h. After the mixture was washed twice with ice PBS, Alexa Fluor-647 Goat anti-human Fc secondary antibody (JacksonImmuno, 109-605-098) was added, and the mixture was incubated at 4° C. for 1 h. After the mixture was washed twice with ice PBS, the cells were resuspended, and the mean fluorescence intensity (MFI) was analyzed using a flow cytometer (BD FACSCanto™ II). Data were analyzed by four-parameter curve fitting using Graphpad Prism software to give EC₅₀ values.
# [1] = target: human ROR1 on stably transfected cell strain MCF7-hROR1 clone 2G2 (human, UniProt Q01973 30-406); test: flow cytometry (FACS) on MCF7-hROR1 clone 2G2 cells, 5-fold dilutions from 100 nM, Alexa Fluor 647 anti-human IgG secondary antibody, four-parameter fit
# Experimental: Stably transfected cell strain MCF7-hROR1 clone 2G2 constructed in the steps described above was expanded to a logarithmic growth phase in a T-75 cell culture flask, and the medium supernatant was discarded after centrifugation. The cell pellet was washed twice with PBS. […] After the mixture was washed twice with PBS, a secondary antibody was added: Alexa Fluor® 647 AffiniPure Goat Anti-Human IgG (H+L) (purchased from Jackson Immuno, Cat. No: 109-605-088), and the mixture was incubated at 4° C. for 1 h. After the mixture was washed twice with PBS, the cells were resuspended, and detected and analyzed by FACS (FACS Canto™, purchased from BD Biosciences). Data were analyzed by four-parameter curve fitting using Graphpad Prism software to give EC₅₀ values.
Binder,EC50 (CDH6 on OVCAR3 cells),EC50 [1]
"ADC-L1-19-6 (antibody, human IgG1, kappa, V domains shown, drug-linker L1-19 on cysteine thiols after TCEP reduction; positions not given; DAR 7.4 for the whole conjugate, Antibody-drug conjugate) VH: EVQLVQSGAEVKKPGASVKVSCKASGYTFTDYYMAWVRQAPGQGLEWMGYIFPNSGGTDYSQKFKGRVTLTVDKSTSTVYMELSSLRSEDTAVYYCARELGADYGDYYAMDHWGQGTTVTVSS VL: DIQMTQSPSSLSASVGDRVTITCRASENIDSYLAWYQQKPGKSPKLLVYSATLLADGVPSRFSGSGSGTDYTLTISSLQPEDFATYYCQHYYRTPPTFGQGTKLEIKR",0.85 nM,
"ADC-L1-19-P1-6 (antibody, human IgG1, kappa, V domains shown, drug-linker L1-19-P1 on cysteine thiols after TCEP reduction; positions not given; DAR 8.0 for the whole conjugate, Antibody-drug conjugate) VH: EVQLVQSGAEVKKPGASVKVSCKASGYTFTDYYMAWVRQAPGQGLEWMGYIFPNSGGTDYSQKFKGRVTLTVDKSTSTVYMELSSLRSEDTAVYYCARELGADYGDYYAMDHWGQGTTVTVSS VL: DIQMTQSPSSLSASVGDRVTITCRASENIDSYLAWYQQKPGKSPKLLVYSATLLADGVPSRFSGSGSGTDYTLTISSLQPEDFATYYCQHYYRTPPTFGQGTKLEIKR",0.8 nM,
"CDH6-Ab-3 (antibody, human IgG1, kappa, V domains shown, also called humanized anti-human CDH6 antibody CDH6-Ab-3) VH: EVQLVQSGAEVKKPGASVKVSCKASGYTFTDYYMAWVRQAPGQGLEWMGYIFPNSGGTDYSQKFKGRVTLTVDKSTSTVYMELSSLRSEDTAVYYCARELGADYGDYYAMDHWGQGTTVTVSS VL: DIQMTQSPSSLSASVGDRVTITCRASENIDSYLAWYQQKPGKSPKLLVYSATLLADGVPSRFSGSGSGTDYTLTISSLQPEDFATYYCQHYYRTPPTFGQGTKLEIKR",0.78 nM,
"ADC-L1-0-9 (antibody, human IgG1, kappa, V domains shown, drug-linker L1-0 on cysteine thiols after TCEP reduction; positions not given; DAR 5.5 for the whole conjugate) VH: EVQLLESGGGLVQPGGSLRLSCAASGFTFSNYAMSWVRQAPGKGLEWVSSISHNSGSTYYADSVKGRFTISRDNSKNTLYLQMNSLRAEDTAVYYCAKFISARKSLGRSYSNGMDVWGQGTLVTVSS VL: QSVLTQPPSASGTPGQRVTISCTGSSSNIGSNDVTWYQQLPGTAPKLLIYADSKRPSGVPDRFSGSKSGTSASLAISGLRSEDEADYYCGTWDYSLSGYVFGGGTKLTVLR",,0.43 nM
"ROR1-Ab-2 (antibody, human IgG1, kappa, V domains shown, also called anti-human ROR1 monoclonal antibody ROR1-Ab-2) VH: EVQLLESGGGLVQPGGSLRLSCAASGFTFSNYAMSWVRQAPGKGLEWVSSISHNSGSTYYADSVKGRFTISRDNSKNTLYLQMNSLRAEDTAVYYCAKFISARKSLGRSYSNGMDVWGQGTLVTVSS VL: QSVLTQPPSASGTPGQRVTISCTGSSSNIGSNDVTWYQQLPGTAPKLLIYADSKRPSGVPDRFSGSKSGTSASLAISGLRSEDEADYYCGTWDYSLSGYVFGGGTKLTVLR",,0.98 nM
"ADC-L1-19-5 (antibody, human IgG1, kappa, V domains shown, drug-linker L1-19 on cysteine thiols after TCEP reduction; positions not given; DAR 6.8 for the whole conjugate, Antibody-drug conjugate) VH: EVQLVQSGAEVKKPGASVKVSCKASGYTFTDNYINWVRQAPGQRLEWMGWIYPGTGNSYYNEKFKGRVTITVDTSASTAYMELSSLRSEDTAVYLCASSYGDSFDYWGQGTTVTVSS VL: DIVMTQSPDSLAVSLGERATINCRASQDIRNYLNWYQQKPGQTPKLLISYTSRLHSGVPDRFSGSGSGTDFTLTISSLQAEDVAVYYCQQYSQLPWTFGGGTKVEIKR",0.51 nM,
"CDH6-Ab-2 (antibody, human IgG1, kappa, V domains shown, also called humanized anti-human CDH6 antibody CDH6-Ab-2) VH: EVQLVQSGAEVKKPGASVKVSCKASGYTFTDNYINWVRQAPGQRLEWMGWIYPGTGNSYYNEKFKGRVTITVDTSASTAYMELSSLRSEDTAVYLCASSYGDSFDYWGQGTTVTVSS VL: DIVMTQSPDSLAVSLGERATINCRASQDIRNYLNWYQQKPGQTPKLLISYTSRLHSGVPDRFSGSGSGTDFTLTISSLQAEDVAVYYCQQYSQLPWTFGGGTKVEIKR",0.63 nM,
"ADC-L1-14-P1-3 (antibody, human IgG1, kappa, V domains shown, drug-linker L1-14-P1 on cysteine thiols after TCEP reduction; positions not given; DAR 8.5 for the whole conjugate, Antibody-drug conjugate) VH: EVQLVQSGAEVKKPGASVKVSCKASGYTFTRNFMHWVRQAPGQGLEWMGWIYPGDGETEYAQKFQGRVTITADTSTSTAYMELSSLRSEDTAVYYCARGVYGGFAGGYFDFWGQGTLVTVSS VL: DIQMTQSPSSLSASVGDRVTITCKASQNIYKNLAWYQQKPGKAPKLLIYDANTLQTGVPSRFSGSGSGSDFTLTISSLQPEDFATYFCQQYYSGWAFGQGTKVEIKR",0.49 nM,
"CDH6-Ab (antibody, human IgG1, kappa, V domains shown, also called anti-human CDH6 monoclonal antibody CDH6-Ab) VH: EVQLVQSGAEVKKPGASVKVSCKASGYTFTRNFMHWVRQAPGQGLEWMGWIYPGDGETEYAQKFQGRVTITADTSTSTAYMELSSLRSEDTAVYYCARGVYGGFAGGYFDFWGQGTLVTVSS VL: DIQMTQSPSSLSASVGDRVTITCKASQNIYKNLAWYQQKPGKAPKLLIYDANTLQTGVPSRFSGSGSGSDFTLTISSLQPEDFATYFCQQYYSGWAFGQGTKVEIKR",0.71 nM,
"ADC-L1-19-P1-3 (antibody, human IgG1, kappa, V domains shown, drug-linker L1-19-P1 on cysteine thiols after TCEP reduction; positions not given; DAR 7.2 for the whole conjugate, Antibody-drug conjugate) VH: EVQLVQSGAEVKKPGASVKVSCKASGYTFTRNFMHWVRQAPGQGLEWMGWIYPGDGETEYAQKFQGRVTITADTSTSTAYMELSSLRSEDTAVYYCARGVYGGFAGGYFDFWGQGTLVTVSS VL: DIQMTQSPSSLSASVGDRVTITCKASQNIYKNLAWYQQKPGKAPKLLIYDANTLQTGVPSRFSGSGSGSDFTLTISSLQPEDFATYFCQQYYSGWAFGQGTKVEIKR",0.36 nM,
"ADC-L1-19-3 (antibody, human IgG1, kappa, V domains shown, drug-linker L1-19 on cysteine thiols after TCEP reduction; positions not given; DAR 7.1 for the whole conjugate, Antibody-drug conjugate) VH: EVQLVQSGAEVKKPGASVKVSCKASGYTFTRNFMHWVRQAPGQGLEWMGWIYPGDGETEYAQKFQGRVTITADTSTSTAYMELSSLRSEDTAVYYCARGVYGGFAGGYFDFWGQGTLVTVSS VL: DIQMTQSPSSLSASVGDRVTITCKASQNIYKNLAWYQQKPGKAPKLLIYDANTLQTGVPSRFSGSGSGSDFTLTISSLQPEDFATYFCQQYYSGWAFGQGTKVEIKR",0.34 nM,
"ADC-L1-19-10 (antibody, human IgG1, kappa, V domains shown, drug-linker L1-19 on cysteine thiols after TCEP reduction; positions not given; DAR 7.2 for the whole conjugate, Antibody-drug conjugate) VH: QVQLRESGPGLVKPSETLSLTCTVSGFDISSYYMSWVRQPPGKGLEWIGAIGISGNAYYASWAKSRVTISRDTSKNQFSLKLSSVTAADTAVYYCARDHPTYGMDLWGPGTLVTVSS VL: SYELTQPPSVSVAPGKTARITCEGNNIGSKAVHWYQQKPGQAPVLVIYDDDERPSGIPERFSGSNSGNTATLTISRVEAGDEADYYCQVWDSSAYVFGGGTKLTVLR",,0.98 nM
"ADC-L1-0-10 (antibody, human IgG1, kappa, V domains shown, drug-linker L1-0 on cysteine thiols after TCEP reduction; positions not given; DAR 7.5 for the whole conjugate) VH: QVQLRESGPGLVKPSETLSLTCTVSGFDISSYYMSWVRQPPGKGLEWIGAIGISGNAYYASWAKSRVTISRDTSKNQFSLKLSSVTAADTAVYYCARDHPTYGMDLWGPGTLVTVSS VL: SYELTQPPSVSVAPGKTARITCEGNNIGSKAVHWYQQKPGQAPVLVIYDDDERPSGIPERFSGSNSGNTATLTISRVEAGDEADYYCQVWDSSAYVFGGGTKLTVLR",,1.25 nM
"ROR1-Ab-3 (antibody, human IgG1, kappa, V domains shown, also called anti-human ROR1 monoclonal antibody ROR1-Ab-3) VH: QVQLRESGPGLVKPSETLSLTCTVSGFDISSYYMSWVRQPPGKGLEWIGAIGISGNAYYASWAKSRVTISRDTSKNQFSLKLSSVTAADTAVYYCARDHPTYGMDLWGPGTLVTVSS VL: SYELTQPPSVSVAPGKTARITCEGNNIGSKAVHWYQQKPGQAPVLVIYDDDERPSGIPERFSGSNSGNTATLTISRVEAGDEADYYCQVWDSSAYVFGGGTKLTVLR",,0.91 nM
"ADC-L1-19-P1-10 (antibody, human IgG1, kappa, V domains shown, drug-linker L1-19-P1 on cysteine thiols after TCEP reduction; positions not given; DAR 8.0 for the whole conjugate, Antibody-drug conjugate) VH: QVQLRESGPGLVKPSETLSLTCTVSGFDISSYYMSWVRQPPGKGLEWIGAIGISGNAYYASWAKSRVTISRDTSKNQFSLKLSSVTAADTAVYYCARDHPTYGMDLWGPGTLVTVSS VL: SYELTQPPSVSVAPGKTARITCEGNNIGSKAVHWYQQKPGQAPVLVIYDDDERPSGIPERFSGSNSGNTATLTISRVEAGDEADYYCQVWDSSAYVFGGGTKLTVLR",,0.57 nM
